Target: COVID-19 Spike-RBD-his fusion protein (novel coronavirus (COVID-19)), P0DTC2
Settings: remark: other sources report otherwise

B1: CD147-his fusion protein, P35613 22-205 (receptor)
chain: AAGTVFTTVEDLGSKILLTCSLNDSATEVTGHRWLKGGVVLKEDALPGQKTEFKVDSDDQWGEYSCVFLPEPMGTANIQLHGPPRVKAVKSSEHINEGETAMLVCKSESVPPVTDWAWYKITDSEDKALMNGSESRFFVSSSQGRSELHIENLNMEADPGQYRCNGTSSKGSDQAIITLRVRSH
  EC50: 68.8 µg/mL
